Experimental data published in publication PMC7367482, “An Erg11 lanosterol 14-α-demethylase-Arv1 complex is required for Candida albicans virulence” (PLoS ONE, 2020).

Molecular target: T1, ScErg28-Cub (S. cerevisiae, UniProt P40030 1-148)
T1 construct: Erg28 of S. cerevisiae, scaffold of the ergosome; Cub vector pCYC-BAIT-Cub-PLV; source: split-ubiquitin two-hybrid fusion, S. cerevisiae L40
T1 sequence: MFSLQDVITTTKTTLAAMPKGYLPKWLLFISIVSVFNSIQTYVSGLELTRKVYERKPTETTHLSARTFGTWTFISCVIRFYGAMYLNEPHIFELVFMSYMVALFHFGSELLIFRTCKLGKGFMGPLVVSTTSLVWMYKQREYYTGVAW
Experiment: two-hybrid; split-ubiquitin two-hybrid in S. cerevisiae L40; Cub-PLV and NubG fusions; growth on Trp- Leu- His- plates after 48 hr and >3-fold β-galactosidase activity over the negative control
Conditions: partners not purified

B1: ScErg27-NubG (natural protein)
chain: MNRKVAIVTGTNSNLGLNIVFRLIETEDTNVRLTIVVTSRTLPRVQEVINQIKDFYNKSGRVEDLEIDFDYLLVDFTNMVSVLNAYYDINKKYRAINYLFVNAAQGIFDGIDWIGAVKEVFTNPLEAVTNPTYKIQLVGVKSKDDMGLIFQANVFGPYYFISKILPQLTRGKAYIVWISSIMSDPKYLSLNDIELLKTNASYEGSKRLVDLLHLATYKDLKKLGINQYVVQPGIFTSHSFSEYLNFFTYFGMLCLFYLARLLGSPWHNIDGYKAANAPVYVTRLANPNFEKQDVKYGSATSRDGMPYIKTQEIDPTGMSDVFAYIQKKKLEWDEKLKDQIVETRTPI
notes: Erg27 of S. cerevisiae; Nub vector pADH-PREY-2HA-NubG; source: split-ubiquitin two-hybrid fusion, S. cerevisiae L40
fold increase in β-galactosidase activity over the negative interaction control: 15 fold
